Assay: soluble on expression in E. coli; label from the status in PepcDB or PDB records

Row | Sequence | soluble on expression in E. coli
1 | MGSDKIHHHHHHMDAMKYNDLRDFLTLLEQQGELKRITLPVDPHLEITEIADRTLRAGGPALLFENPKGYSMPVLCNLFGTPKRVAMGMGQEDVSALREVGKLLAFLKEPEPPKGFRDLFDKLPQFKQVLNMPTKRLRGAPCQQKIVSGDDVDLNRIPIMTCWPEDAAPLITWGLTVTRGPHKERQNLGIYRQQLIGKNKLIMRWLSHRGGALDYQEWCAAHPGERFPVSVALGADPATILGAVTPVPDTLSEYAFAGLLRGTKTEVVKCISNDLEVPASAEIVLEGYIEQGETAPEGPYGDHTGYYNEVDSFPVFTVTHITQREDAIYHSTYTGRPPDEPAVLGVALNEVFVPILQKQFPEIVDFYLPPEGCSYRLAVVTIKKQYAGHAKRVMMGVWSFLRQFMYTKFVIVCDDDVNARDWNDVIWAITTRMDPARDTVLVENTPIDYLDFASPVSGLGSKMGLDATNKWPGETQREWGRPIKKDPDVVAHIDAIWDELAIFNNGKSA | not soluble
2 | MTVSSHRLELLSPARDAAIAREAILHGADAVYIGGPGFGARHNASNSLKDIAELVPFAHRYGAKIFVTLNTILHDDELEPAQRLITDLYQTGVDALIVQDMGILELDIPPIELHASTQCDIRTVEKAKFLSDVGFTQIVLARELNLDQIRAIHQATDATIEFFIHGALCVAYSGQCYISHAQTGRSANRGDCSQACRLPYTLKDDQGRVVSYEKHLLSMKDNDQTANLGALIDAGVRSFKIEGRYKDMSYVKNITAHYRQMLDAIIEERGDLARASSGRTEHFFVPSTEKTFHRGSTDYFVNARKGDIGAFDSPKFIGLPVGEVVKVAKDHLDVAVTEPLANGDGLNVLIKREVVGFRANTVEKTGENQYRVWPNEMPADLHKIRPHHPLNRNLDHNWQQALTKTSSERRVAVDIELGGWQEQLILTLTSEEGVSITHTLDGQFDEANNAEKAMNNLKDGLAKLGQTLYYARDVQINLPGALFVPNSLLNQFRREAADMLDAARLASYQRGSRKPVADPAPVYPQTHLSFLANVYNQKAREFYHRYGVQLIDAAYEAHEEKGEVPVMITKHCLRFAFNLCPKQAKGNIKSWKATPMQLVNGDEVLTLKFDCRPCEMHVIGKIKNHILKMPLPGSVVASVSPDELLKTLPKRKG | soluble
3 | MGHHHHHHSHMTLEEFSAGEQKTERMDKVGDALEEVLSKALSQRTITVGVYEAAKLLNVDPDNVVLCLLAADEDDDRDVALQIHFTLIQAFCCENDINILRVSNPGRLAELLLLETDAGPAASEGAEQPPDLHCVLVTNPHSSQWKDPALSQLICFCRESRYMDQWVPVINLPER | not soluble
4 | MGSDKIHHHHHHMSVSSTIEWTEATWNPTTGCHKISPGCKNCYAERFAERWRGVAGHPYEQGFDVKTWHERLKMPLSWKKPRLIFVNSMSDLFLDDISEEFIKDVFNVMEEASWHQFQVLTKRPQRMLKIANSIKKWPSNIWAGVSIESQAWVWRSEILKEIPAKIRFLSCEPLLGSLTLSLDELHWIIVGGESGVGARPMNIEWVRDIREQCIQANVPFFFKQWGGIQKKKYGREIDGRTWDGFPETIVDKNTKQVSPVK | not soluble
5 | MEDSCVLRGVMINKDVTHPRMRRYIKNPRIVLLDSSLEYKKGESQTDIEITREEDFTRILQMEEEYIHQLCEDIIQLKPDVVITEKGISDLAQHYLMRANVTAIRRVRKTDNNRIARACGARIVSRPEELREDDVGTGAGLLEIKKIGDEYFTFITDCKDPKACTILLRGASHHHHHH | soluble
6 | MSLGHPVDTFRRENKALRESAARLQKAMNGVLETADDGDASARLLEWRQALNELQDVDKHYQRKEHLLSTCLERHGITGPSKVMWGKDDQIRELLKDTSVALRQSDTSVAELKVLAATTGAAAAGAVHEMIYKEEQILLPICLERFTADEWAEIWASSPRYGWCLVEPRQGYKPFTSEAAGRASVDGGVSLPTGALALEQLIAIFSTLPVDLTFVDANDRVAFFSEGPSRVFARSRTIVGRMVQNCHPPRSVDVVERILSDFREGRQNVAEFWLQFVGRFVHIRYFAVRSEDGRYLGTLEVTQDVGPIRALEGERRLLEYAEPSEGHHHHHH | not soluble
7 | KHGPLHPIPNRPVLTRARASLPLVLYIDRFLGGVFSKRRIPKRTQFGPVEGPLVRGSELKDCYIHLKVSLDKGDRKERDLHEDLWFELSDETLCNWMMFVRPAQNHLEQNLVAYQYGHHVYYTTIKNVEPKQELKVWYAASYAEFVNQKIHD | soluble
8 | MSKLGKQDVYYFEGLDDILIAMMTTKDAVGTEPAFGEVVRLPIATKLGIKGNGTALEKWASSKMFRRVSRETKHEIALDHVGIPIAVMDEIKGLIAQSGVTFGKNTAREFPYFAFGFIGNIENGGKKAVWYPKTQLSNVIDEEYTTAEDETKIDDVTANFVSTGLTYNNVMYSSFDSNRDSASIELFEKFIAQPVYDEEQWKKLAGPSRGGGSE | not soluble
9 | MGSDKIHHHHHHMLPSAPCSGWSHHTLKPLGAGTRGTGYIMPVTNMIHLDNRDHADRQSHGQPAHVLMLEQSPGVVPKSLLGKGLTYLREQWPKLIRYVENGSWPISNNPCENAIRLFCVGRRGWLFSDTVDGANACANLYTLVETSKTNGIDLYRYLAWLFRRLPLAKTVDDYDALLPWRMPVDIHVDPFDKERSTIDHEQENHSAGSLSA | not soluble
10 | TKEHRAAARKIAGESFVLLKNEGLSPTLAPVLPLSPTGTIAVIGPLANTRSNMPGTWSVAAVLDKSPSLVEGLTEWVGNQGKILYAKGSNLIGDAAYEERATMFGRSLNRDNRTDQQLLDEALKIASQADVIVAALGESSEMSGESSSRTNLNLPDVQHTLLEALLKTGKPVVLVLFTGRPLVLNWEQEHVPAILNVWFGGSEAGPAIGDVLFGAVNPGGKLTMTFPKSVGQIPLYYAHKNTGRPLKEGKWFEKFRSNYLDVDNDALYPFGYGLSYTTF | not soluble
11 | MSLSLKIALISQNENLLNLFPKLALEKNFIPITKTASLTRASKIAFGLQDEVDAIISRGATSDYIKKSVSIPSISIKVTRFDTMRAVYNAKRFGNELALIAYKHSIVDKHEIEAMLGVKIKEFLFSSEDEITTLISKVKTENIKIVVSGKTVTDEAIKQGLYGETINSEGHHHHHH | not soluble
12 | GPHMTTIEDEDTKVRKQEIIKVTEQLIEAISNGDFESYTKMCDPGMTAFEPEALGNLVEGLDFHRFYFENLWSRNSKPVHTTILNPHIHLMGDESACIAYIRITQYLDAGGIPRTAQSEETRVWHRRDGKWQIVHFHRSGAPSVLPH | soluble
13 | MTLVSQIEAILFVVGEEGIGLEELAYLLEKSTAKTYEELTKLKEHYASDNKSALNILEVGNHFVLTTKKKYASLLKKYAQSPMSNALSQAALETLSIIAYKQPISRIEIDEIRGVQTSGSIQKLVARQLIEEKGRVDGPGRAILYGTTKYFMDYFGLKSLDELPDIQQMEDELEEELPMDLFFDRYQETNPMSETTEGEEA | not soluble
14 | MPLTQTQRLINTYGASLKNGTISNEELIILLDPNTFTKSEGYVDPNAPVSDSNHSKMDAIKDFVLTIGPTLDSEILHQLTSRMIELSPPGDRNTFMRGSSLEKAFLAFEMAHYPTKAEEHFNSTRVRTEFPGENDIDNLKAVILNPIIAFFQSPPGTDEKLEKLIKLCTDYKEHLKPSLTDDANNLVNKKHAIVTNMLAALTDSTAPNNATKIKNMEQILTEENKATLKDRRDSFSGARFLESILHILSLGIYSKLTKGTFKFWKSHGEALSDNIEEVSKQQPGMK | not soluble
15 | MGSDKIHHHHHHMSRTITIDPVTRIEGHATITIRLNDAGAVADARFHVTEFRGFERICIGRSIWEMPGITARICGICPVSHSISAARAGDAILGVEIPPAAVHLRRIANLASLIQSHALSFFHLSAADLLMGMDEEPSRRNLWGLVAHHPEVARGGIRLRQIGQKIVSDVAGESIHPSWAVPGGVREPLSPEGRDRIAALLPEGLAIVRGALGMLDGIYARHEAEITAYGDFPSLFAGLTASDGGLEHYDGSLRFTDSAGVHVDELSPEHYAQAVTERAEPWSYMTFPYYHPHGDREGGGMFRVGPLARLNICDRAGTPEADRELAAFRQVRGAGGMVTGSFHYHHARLIEILHALERIGMLLDEPDILDRHVRSEAGVNRPAGVGFCEAPRGTLFHDYEVDDDGIVSRVNLLIATGMNNLAINRTIRQVAAEFIRGGEFTEGILNRIEHGVRAYDPCLSCATHAYGRMPLRVMLLGPDGTVLDEAKRGR | not soluble
16 | EGIPWEGNYTSWLEQKDARLQQEASQESARQKTIEKELEWVRKNPKGRQAKSKARMARFEELQNTEHQKRNETNELFIPPGER | soluble
17 | MLTREDIFKHVKEKYGTSPDYPWEKYPNYASLRHTSNKKWYGLIMNVLPEKLGLDGHGEIDILNLKCPPEISDRLRNGENILPGYHMDKEHWISIVLERTDPEGEIYNLIEQSFHLTKLEHHHHHH | soluble
18 | MIKEKYTFDDLVEIMKILRSENGCPWDRVQNHESLKKYLIEETYEVLEVIDLNDKKRLCEELGDLLLQIVFHAQIASEDNEFDINDVITGICRKMVQRHTHVFGTDKADTAEEVLANWEEIKKKEKGMESQTEVLKSVPSNLPALMRSYKVQQKASQVGFDWKDIDSVFEKVYEEINELRDVYKSKDVERINDELGDVLFSIVNLSRFLKVQPELALMGSVNKFIERFEFIEKEAAKSGRTLSEMSLDEMDELWNKAKTKI | soluble
19 | MEKAPLLLETVEQAVRILQESPFVAIWNYKVLSVQAGAVALALPAQPQFYRPGGIIQGGCLMTLADTAFWLAAMTELGIDAPIVTLEMKTHFLRAAQADVYCRAEVMKSGRRVTYGTATITDAAGQTLSHHTLTYLAA | not soluble
20 | MSLSRLLNDFNQSLKKGFIDKDISHKGNYTPKLLVNNKNEKVLSTIIDELQKCETFYFSVAFITESGLASLKAQLLDLSNKGVKGKILTSNYLGFNSPKMYGELLKLKNVEVRLTDIAGFHAKGYIFEHKDYSSMVIGSSNLTSNALKVNYEHNVLLSTMKNGDLVDSVKNEFELLWQKSTPLTEQWINSYKESFEYRSLEKLAEVEQTQMLLADKVKKSVEIVPNLMQAEALRSLKAIRDKTKDKALIISATGTGKTILCALDVREVNPNKFLFIVHNEGILNRAKEEFKKVLPIKNDSDFGLLTGKHRDVDAKYLFATIQTLSRDDNFKQFDENEFDYIVFDEAHRSAASTYQRVFNYFKPKFMLGMTATPERSDELSIFELFDYNIAYEIRLQAALESDILCPFHYFGVTDYVHQGIKEDDVTKLRYLTSDERVNYIIQKTDEGHHHHHH | not soluble
21 | RGEPYAGQVAVGATVINRTKNPKFPSTIAGVIYQPGAFTAIVDGQIHATMEPNSIRAARDALNGWDPSGGAIYYFNPATATSGWIWSRPLIIIIGKHRFCR | not soluble
22 | MSCSSSSMLFLVLIATTVLIAESRVFYNRFDGGLSSDRFMEQKRDGAEASYDYDANQVIRNTMKRNRQCLLNAGLSQGCDFSDLLHAQTQARKFMSFAGPGK | not soluble
23 | SLTHYKYYEANVETNQVLVFLHGFLSDSRTYHNHIEKFTDNYHVITIDLPGHGEDQSSMDETWNFDYITTLLDRILDKYKDKSITLFGYSMGGRVALYYAINGHIPISNLILESTSPGIKEEANQLERRLVDDARAKVLDIAGIELFVNDWEKLPLFQSQLELPVEIQHQIRQQRLSQSPHKMAKALRDYGTGQMPNLWPRLKEIKVPTLILAGEYDEKFVQIAKKMANLIPNSKCKLISATGHTIHVEDSDEFDTMILGFLKEEQND | soluble
24 | MILTPPDTPFFLRNGNADTIAAKFLQRPAPAYRRELLPDSTGKTKVAYDFSDGISPDAPLVVLFHGLEGSSRSHYAVELMLAVRDRGWHGVVVHFRSCGGIANTAPVFYHLGDTAEIAFTLDTFAARYREIYAVGVSLGGNALAKYLGEQGKKALPQAAAVISAPVDAEAAGRRFDSGITRLLYTRYFLRTLIPKAKSLQGFQTAFAAGCKTLGEFDDRFTAPLHGFADRHDYYRQTSCKPLLKHVAKPLLLLNAVNDPFLPPEALPRADEVSEAVTLFQPAYGGHVGFVSSTGGRLHLQWLPQTVLSYFDSFRTNRR | not soluble

Reference: the DeepSol protein solubility set
